Results on 19 molecules are retold here after patent publication US20230235080A1, “TROPHOBLAST CELL-SURFACE ANTIGEN-2 (TROP-2) ANTIBODIES” (Bionecure Therapeutics, Inc., priority 2020, published 2023).

T1: human Trop-2 on Trop-2 positive cancer cells (human, UniProt P09758 27-323)
T1 sequence (looked up): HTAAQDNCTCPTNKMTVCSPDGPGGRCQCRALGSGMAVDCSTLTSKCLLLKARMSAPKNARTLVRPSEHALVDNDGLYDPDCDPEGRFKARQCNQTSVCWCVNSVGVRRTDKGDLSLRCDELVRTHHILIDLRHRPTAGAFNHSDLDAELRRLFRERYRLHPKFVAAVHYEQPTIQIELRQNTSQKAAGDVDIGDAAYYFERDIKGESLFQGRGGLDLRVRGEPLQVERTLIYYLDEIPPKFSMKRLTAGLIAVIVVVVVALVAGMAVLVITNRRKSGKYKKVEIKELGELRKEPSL

T2: human Trop-2-ECD-6His fusion protein (human, UniProt P09758 27-274)
T2 construct: Expressed in a human 293 cell line; also called huTrop-2; human Trop-2 antigen
T2 sequence: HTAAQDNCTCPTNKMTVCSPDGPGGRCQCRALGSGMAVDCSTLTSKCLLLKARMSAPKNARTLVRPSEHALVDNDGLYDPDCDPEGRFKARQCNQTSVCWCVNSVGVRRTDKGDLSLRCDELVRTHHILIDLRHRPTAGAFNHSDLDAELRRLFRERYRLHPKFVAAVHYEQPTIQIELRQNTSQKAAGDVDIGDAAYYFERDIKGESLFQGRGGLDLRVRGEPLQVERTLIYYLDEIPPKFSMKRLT

T3: mouse Trop-2-His (mouse, UniProt Q8BGV3 25-270)
T3 sequence (looked up): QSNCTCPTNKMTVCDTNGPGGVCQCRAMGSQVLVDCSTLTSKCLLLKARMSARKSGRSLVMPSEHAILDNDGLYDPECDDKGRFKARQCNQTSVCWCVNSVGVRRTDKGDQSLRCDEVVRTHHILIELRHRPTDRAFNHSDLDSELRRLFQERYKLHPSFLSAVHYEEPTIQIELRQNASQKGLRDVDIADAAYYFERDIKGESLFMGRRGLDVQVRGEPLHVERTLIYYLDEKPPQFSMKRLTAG

T4: human EPCAM-His (human, UniProt P16422 24-265)
T4 construct: also called hEPCAM
T4 sequence (looked up): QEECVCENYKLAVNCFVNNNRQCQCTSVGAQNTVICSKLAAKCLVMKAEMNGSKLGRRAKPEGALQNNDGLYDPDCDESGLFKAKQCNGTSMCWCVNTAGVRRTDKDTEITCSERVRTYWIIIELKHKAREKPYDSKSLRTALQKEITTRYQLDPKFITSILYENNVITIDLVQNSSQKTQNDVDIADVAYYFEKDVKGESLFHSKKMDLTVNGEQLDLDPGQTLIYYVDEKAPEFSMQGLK

B1: humanized IgG #118-2-5 HuA/LuX (antibody, V domains shown)
VH: QVQLQESGPGLVKPSETLSLTCTVSGFSLTSYGVNWIRQPPGKGLEWIGVMWAGGSTNYNSALMSRVTISVDTSKNQFSLKLSSVTAADTAVYYCARDENWDGAWFAYWGQGTLVTVSS
VL: DIVMTQSPDSLAVSLGERATINCKSSQSLLNSGTRKNYLAWYQQKPGQPPKLLIYWASSRESGVPDRFSGSGSGTDFTLTISSLQAEDVAVYYCKQSYNLFTFGGGTKVEIK
notes: Full-length IgG expressed in HEK293-6E cells; also called 1 (HuA/LuX); IgG HuA/LuX
B2: humanized IgG #118-2-5 HuD/LuY (antibody, V domains shown)
VH: B1 VH with Q5K, K13A, L20I, I48L, V67L, V71K, F78V, T86Q, V92M
VL: B1 VL with D9S, I21M, N22S, Y55S, L84V, V89L
notes: Full-length IgG expressed in HEK293-6E cells; also called 8 (HuD/LuY)
B3: humanized IgG #118-2-5 HuC/LuX (antibody, V domains shown)
VH: QVQLQESGPGLVKPSETLSLTCTVSGFSLTSYGVNWIRQPPGKGLEWIGVMWAGGSTNYNSALMSRLSISKDNSKSQVFLKMNSLQTDDTGMYYCARDENWDGAWFAYWGQGTLVTVSS
VL: B1 VL
notes: Full-length IgG expressed in HEK293-6E cells; also called 3 (HuC/LuX)
B4: humanized IgG #118-2-5 HuB/LuY (antibody, V domains shown)
VH: B1 VH with Q5K, E6Q, K13A, E16Q, T17S, L20I
VL: B1 VL with D9S, I21M, N22S, Y55S, L84V, V89L
notes: Full-length IgG expressed in HEK293-6E cells; also called 6 (HuB/LuY)
B5: humanized IgG #118-2-5 HuD/LuX (antibody, V domains shown)
VH: B1 VH with Q5K, K13A, L20I, I48L, V67L, V71K, F78V, T86Q, V92M
VL: B1 VL
notes: Full-length IgG expressed in HEK293-6E cells; also called 4 (HuD/LuX)
B6: humanized IgG #118-2-5 HuB/LuX (antibody, V domains shown)
VH: B1 VH with Q5K, E6Q, K13A, E16Q, T17S, L20I
VL: B1 VL
notes: Full-length IgG expressed in HEK293-6E cells; also called 2 (HuB/LuX)
B7: humanized IgG #118-2-5 HuC/LuY (antibody, V domains shown)
VH: B3 VH
VL: B1 VL with D9S, I21M, N22S, Y55S, L84V, V89L
notes: Full-length IgG expressed in HEK293-6E cells; also called 7 (HuC/LuY)
B8: humanized IgG #118-2-5 HuA/LuY (antibody, V domains shown)
VH: B1 VH
VL: B1 VL with D9S, I21M, N22S, Y55S, L84V, V89L
notes: Full-length IgG expressed in HEK293-6E cells
B9: #118-2-5 mouse H4-2/L3-3 (antibody, V domains shown)
VH: QVQLKQSGPGLVAPSQSLSITCTVSGFSLTSYGVNWIRQPPGKGLEWLGVMWAGGSTNYNSALMSRLSISKDNSKSQVFLKMNSLQTDDTGMYYCARDENWDGAWFAYWGQGTLVTVS
VL: DIQMTQSPSSLAVSAGEKVTMSCKSSQSLLNSGTRKNYLAWYQQKPGQSPKLLISWASSRESGVPDRFTGSGSGTDFTLTISSVQAEDLAVYYCKQSYNLFTFGGGTKLELK
notes: The label H4-2/L3-3 is not explained
B10: humanized IgG #118-2-5 HuA/Lu(X4) (antibody, V domains shown)
VH: B1 VH
VL: B1 VL with Y55S
notes: Second round of humanization
B11: humanized IgG #118-2-5 Hu(A5)/LuX (antibody, V domains shown)
VH: B1 VH with V92M
VL: B1 VL
notes: Second round of humanization
B12: humanized IgG #118-2-5 Hu(A4)/LuX (antibody, V domains shown)
VH: B1 VH with T86Q
VL: B1 VL
notes: Second round of humanization
B13: humanized IgG #118-2-5 HuA/Lu(X6) (antibody, V domains shown)
VH: B1 VH
VL: B1 VL with V89L
notes: Second round of humanization
B14: humanized IgG #118-2-5 HuA/Lu(X2) (antibody, V domains shown)
VH: B1 VH
VL: B1 VL with I21M
notes: Second round of humanization
B15: humanized IgG #118-2-5 HuA/Lu(X1) (antibody, V domains shown)
VH: B1 VH
VL: B1 VL with D9S
notes: Second round of humanization
B16: humanized IgG #118-2-5 Hu(A2)/LuX (antibody, V domains shown)
VH: B1 VH with V71K
VL: B1 VL
notes: Second round of humanization
B17: humanized IgG #118-2-5 Hu(A3)/LuX (antibody, V domains shown)
VH: B1 VH with F78V
VL: B1 VL
notes: Second round of humanization
B18: humanized IgG #118-2-5 HuA/Lu(X5) (antibody, V domains shown)
VH: B1 VH
VL: B1 VL with L84V
notes: Second round of humanization
B19: #125-1-5 mouse H14-4/L3-4 (antibody, V domains shown)
VH: QIQLVQSGPELVKPGASVKMSCKASGYTFTTYVIHWVKQKPGQGLEWIGYINPNNDGTKYNEKFKGKATLISDKSSTTAYMEVRGLTSEDSAVYYCARPHFETHAMDYWGQGTSVTVSS
VL: DIQMTQSPSSFSVSLGDSVTITCKASEDIFNRLAWYQQKPGNAPRLLISGATSLETGVPSRFSGGGSGKEYTLSITSLQNEDVATYYCQQYWNTWTFGGGTKLEIK

Substitutions are numbered along the chain they refer to.

One assay concerns the target T1, human Trop-2 on Trop-2 positive cancer …. In words: cell-based or functional assay.
As for B1, the “Internalization rate (flow cytometry, MDA-MB-468 cells)” value (from here on “Internalization rate”) was 70.9%.

As for B2, the “Internalization rate” value amounted to 13.2%.

As for B3, the “Internalization rate” value came to 0.9%.

Regarding B4, the “Internalization rate” value is -8.5%.

On to B5, for which the “Internalization rate” value is -7.8%.

In the case of B6, the “Internalization rate” value worked out at 75%.

In the case of B7, the “Internalization rate” value was 3%.

For the molecule B8, the “Internalization rate” value is -14.7%.

With B9, the “Internalization rate” value came to 28.4%.

Another assay shares this target. In words: cell-based or functional assay. The source holds these as a separate data set.
For B1, the “Internalization rate” value amounted to 96.8%.

Take B2: the “Internalization rate” value was 57.3%.

Regarding B10, the “Internalization rate” value turned out to be 61.5%.

With B11, the “Internalization rate” value was found to be 11.5%.

B12: the “Internalization rate” value stood at 52.8%.

Consider B13, for which the “Internalization rate” value was 46.4%.

Regarding B14, the “Internalization rate” value turned out to be 43.2%.

Regarding B15, the “Internalization rate” value was determined as 48.9%.

For B16, the “Internalization rate” value is 14.6%.

Turning to B17, the “Internalization rate” value came out at 55.8%.

For B18, the “Internalization rate” value amounted to 19.7%.

The target is the same in another assay. Description: cell-based or functional assay. This is another data set of the same source.
Turning to B19, the “Internalization rate” value worked out at 5.5%.

Another assay concerns the target T2, human Trop-2-ECD-6His fusion protein. In words: antigen binding ELISA on immobilized human Trop-2-ECD-6His.
With B1, the half-maximal effective concentration (EC50) (as a rule, the concentration at which the effect is half-maximal) came to 0.142 nM.

B2 gave a half-maximal effective concentration (EC50) of 0.005 nM.

As for B3, the half-maximal effective concentration (EC50) worked out at 0.034 nM.

Molecule B4 displayed an EC50 of 0.004 nM.

Molecule B5 had an EC50 of 0.011 nM.

The molecule B6 gave a concentration for a half-maximal effect (EC50) of 0.164 nM.

Turning to B7, the EC50 was 0.014 nM.

For B8, the EC50 was found to be 0.016 nM.

B9 came in with an EC50 of 0.024 nM.

A further assay shares this target. The description is as above. This is another data set of the same source.
Regarding B1, the midpoint of the response, the EC50, lay at 0.39 nM.

In turn, B2 displayed a half-maximal effective concentration (EC50) of 0.06 nM.

Consider B10, for which a half-maximal response (EC50) required 0.12 nM.

B11 yielded a concentration for a half-maximal effect (EC50) of 0.34 nM.

Consider B12, for which the EC50 came to 0.39 nM.

For B13, a half-maximal response (EC50) required 0.26 nM.

Regarding B14, the midpoint of the response, the EC50, lay at 0.36 nM.

B15: it took 0.26 nM to reach a half-maximal effect (EC50).

Turning to B16, the concentration giving a half-maximal response (EC50) is 0.37 nM.

In the case of B17, the EC50 stood at 0.31 nM.

As for B18, the concentration giving a half-maximal response (EC50) was 0.31 nM.

The target in a further assay is T3, mouse Trop-2-His. In words: ELISA on coated antigen, one antibody dilution (concentration not given), detected by GAH-HRP; y axis without a label (OD450 by the text).
B1: the binding result was “no binding”.

With B2, the binding result is on record as “no binding”.

Regarding B3, the binding result was “no binding”.

As for B4, the binding result is reported as “no binding”.

Regarding B5, the binding result was “no binding”.

Consider B6, for which the binding result is “no binding”.

Consider B7, for which the binding result is given as “no binding”.

With B8, the binding result is on record as “no binding”.

Take B9: the binding result was “no binding”.

The target in another assay is T4, human EPCAM-His. The description is as above.
For B1, the binding result is on record as “no binding”.

For the molecule B2, the binding result is on record as “no binding”.

In the case of B3, the binding result is listed as “no binding”.

On to B4, for which the binding result was “no binding”.

Consider B5, for which the binding result is listed as “no binding”.

In the case of B6, the binding result was “no binding”.

Consider B7, for which the binding result is on record as “no binding”.

As to B8, the binding result is “no binding”.

Turning to B9, the binding result was “no binding”.
